Test results from patent publication US20090143319, “Transcription factor decoy” (AnGesMG, Inc., published 2009).

B1: SEQ-22 (dsDNA)
DNA 1: GAGGGGATTTCCCCC
DNA 2: GGGGGAAATCCCCTC
B2: SEQ-32 (dsDNA)
DNA 1: CTTGAGGGGATTTCCCCCC
DNA 2: GGGGGGAAATCCCCTCAAG
B3: SEQ-44 (dsDNA)
DNA 1: CCTTGAAGGGATTTCCCTCC
DNA 2: GGAGGGAAATCCCTTCAAGG
modifications: PS (*): C*C*TTGAAGGGATTTCCCT*C*C / 3'-G*G*AA*C*T*…*G*G
B4: SEQ-18 (dsDNA)
DNA 1: CTTGAGGGGATTTCCCC
DNA 2: GGGGAAATCCCCTCAAG
B5: SEQ-16 (dsDNA)
DNA 1: TGAGGGGATTTCCCC
DNA 2: GGGGAAATCCCCTCA
B6: SEQ-25 (dsDNA)
DNA 1: CTTGAGGGGATTTCCCCC
DNA 2: GGGGGAAATCCCCTCAAG
B7: SEQ-45 (dsDNA)
DNA 1: CCTTGAAGGGATTTCCCTCC
DNA 2: GGAGGGAAATCCCTTCAAGG
modifications: PS (*): C*C*TTGAAGGGATTTCCCT*C*C / 3'-G*G*…*A*A*GGGA*G*G
B8: SEQ-L (dsDNA)
DNA 1: CCTTGAGGGGACTTTCCCCC
DNA 2: GGGGGAAAGTCCCCTCAAGG
B9: SEQ-19 (dsDNA)
DNA 1: CCTTGAGGGGATTTCCCC
DNA 2: GGGGAAATCCCCTCAAGG
B10: SEQ-31 (dsDNA)
DNA 1: TTGAGGGGATTTCCCCCC
DNA 2: GGGGGGAAATCCCCTCAA
B11: SEQ-38 (dsDNA)
DNA 1: TTGAGGGGATTTCCCC
DNA 2: GGGGAAATCCCCTCAA
modifications: PS (*): TTG*A*GGGGATTT*C*CCC / antisense 5'-GGGGAAA*T*C*CCCTCAA
B12: SEQ-48 (dsDNA)
DNA 1: CCTTGAAGGGACTTTCCTCC
DNA 2: GGAGGAAAGTCCCTTCAAGG
modifications: PS (*): C*C*TTGAAGGGACTTTCCT*C*C / 3'-G*G*AACTTCC*C*T*GAAAGGA*G*G
B13: SEQ-15 (dsDNA)
DNA 1: GAGGGGATTTCCCC
DNA 2: GGGGAAATCCCCTC
B14: SEQ-13 (dsDNA)
DNA 1: GGGGATTTCCCC
DNA 2: GGGGAAATCCCC
B15: SEQ-35 (dsDNA)
DNA 1: GAGGGGATTTCCCC
DNA 2: GGGGAAATCCCCTC
modifications: PS (*): G*A*GGGGATTT*C*CCC / antisense 3'-CTCCC*C*T*AAAG*G*GGG (so in the source)
B16: SEQ-37 (dsDNA)
DNA 1: TTGAGGGGATTTCCCC
DNA 2: GGGGAAATCCCCTCAA
modifications: PS (*): T*T*G*A*GGGGATTT*C*CCC / antisense 5'-G*G*GGAAA*T*C*CCCTCAA
B17: SEQ-34 (dsDNA)
DNA 1: GAGGGGATTTCCCC
DNA 2: GGGGAAATCCCCTC
modifications: PS (*): G*A*GGGGATTT*C*CCC / antisense 5'-G*GGGAAA*T*C*CCCTC
B18: SEQ-24 (dsDNA)
DNA 1: TTGAGGGGATTTCCCCC
DNA 2: GGGGGAAATCCCCTCAA
B19: SEQ-26 (dsDNA)
DNA 1: CCTTGAGGGGATTTCCCCC
DNA 2: GGGGGAAATCCCCTCAAGG
B20: SEQ-30 (dsDNA)
DNA 1: TGAGGGGATTTCCCCCC
DNA 2: GGGGGGAAATCCCCTCA
B21: SEQ-21 (dsDNA)
DNA 1: AGGGGATTTCCCCC
DNA 2: GGGGGAAATCCCCT
B22: SEQ-20 (dsDNA)
DNA 1: GGGGATTTCCCCC
DNA 2: GGGGGAAATCCCC
B23: SEQ-33 (dsDNA)
DNA 1: GAGGGGATTTCCCC
DNA 2: GGGGAAATCCCCTC
modifications: PS (*): G*A*GGGGATTT*C*CCC / antisense 5'-GGGGAAA*T*C*CCCTC
B24: SEQ-M (dsDNA)
DNA 1: ACCAAGGGATTTCCCTGTCCCAC
DNA 2: GTGGGACAGGGAAATCCCTTGGT
B25: SEQ-17 (dsDNA)
DNA 1: TTGAGGGGATTTCCCC
DNA 2: GGGGAAATCCCCTCAA
B26: SEQ-47 (dsDNA)
DNA 1: CCTTGAAGGGACTTTCCTCC
DNA 2: GGAGGAAAGTCCCTTCAAGG
modifications: PS (*): C*C*TTGAAGGGACTTTCCT*C*C / 3'-G*G*AAC*T*T*…*G*G
B27: SEQ-36 (dsDNA)
DNA 1: TTGAGGGGATTTCCCC
DNA 2: GGGGAAATCCCCTCAA
modifications: PS (*): T*TG*A*GGGGATTT*C*CCC / antisense 5'-G*GGGAAA*T*C*CCCTCAA
B28: SEQ-9 (dsDNA)
DNA 1: CCTTGAGGGGATTTCCCCCC
DNA 2: GGGGGGAAATCCCCTCAAGG
modifications: PS (*): C*C*TTG*A*GGGGATTT*C*CCCCC / antisense 5'-G*G*GGGGAAA*T*C*CCCTCAAGG
B29: SEQ-27 (dsDNA)
DNA 1: GGGGATTTCCCCCC
DNA 2: GGGGGGAAATCCCC
B30: SEQ-28 (dsDNA)
DNA 1: AGGGGATTTCCCCCC
DNA 2: GGGGGGAAATCCCCT
B31: SEQ-46 (dsDNA)
DNA 1: CCTTGAAGGGACTTTCCTCC
DNA 2: GGAGGAAAGTCCCTTCAAGG
modifications: PS at 2 bonds at each end of both strands
B32: SEQ-14 (dsDNA)
DNA 1: AGGGGATTTCCCC
DNA 2: GGGGAAATCCCCT
B33: SEQ-K (dsDNA)
DNA 1: AGTTGAAGGGATTTCCCTAGGC
DNA 2: GCCTAGGGAAATCCCTTCAACT
B34: SEQ-40 (mixed)
DNA: CCTTGAGGGGATTTCCCCCC
mixed: GGGGGGAAATCCCCUCAAGG
modifications: LNA/RNA marked by bold/italic, positions not recoverable from text
B35: SEQ-23 (dsDNA)
DNA 1: TGAGGGGATTTCCCCC
DNA 2: GGGGGAAATCCCCTCA
B36: SEQ-49 (dsDNA)
DNA 1: CCTTGAAGGGACTTTCCTCC
DNA 2: GGAGGAAAGTCCCTTCAAGG
modifications: PS (*): C*C*TTGAAGGGACTTTCCT*C*C / 3'-G*G*…*G*A*AAGGA*G*G
B37: SEQ-29 (dsDNA)
DNA 1: GAGGGGATTTCCCCCC
DNA 2: GGGGGGAAATCCCCTC

Tests used:
Settings in all cases: protein: extract; tags: native, Jurkat nuclear extract (TransAM NF-kB p65 kit, Active Motif)
[1] = target: T1, NF-kB p65 (RelA) (UniProt Q04206 Q04206:1-551); assay: competition
T1 sequence (Q04206 whole entry, one chain of several): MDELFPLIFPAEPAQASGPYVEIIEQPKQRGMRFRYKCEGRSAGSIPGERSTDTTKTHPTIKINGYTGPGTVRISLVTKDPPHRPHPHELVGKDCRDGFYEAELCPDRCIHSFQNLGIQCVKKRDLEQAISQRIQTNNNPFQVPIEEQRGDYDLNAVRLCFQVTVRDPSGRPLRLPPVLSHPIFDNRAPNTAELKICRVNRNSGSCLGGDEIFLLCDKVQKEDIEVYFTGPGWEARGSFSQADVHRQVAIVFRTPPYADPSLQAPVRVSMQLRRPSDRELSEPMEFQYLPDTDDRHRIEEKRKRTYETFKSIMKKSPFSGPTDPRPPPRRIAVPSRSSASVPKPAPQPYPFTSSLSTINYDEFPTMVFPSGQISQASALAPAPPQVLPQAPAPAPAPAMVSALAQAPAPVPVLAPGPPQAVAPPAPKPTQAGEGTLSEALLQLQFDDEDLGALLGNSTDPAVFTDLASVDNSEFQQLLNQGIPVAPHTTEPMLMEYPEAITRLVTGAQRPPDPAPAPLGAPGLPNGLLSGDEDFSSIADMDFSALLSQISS
Protocol: (§1) Complete Lysis Buffer, Complete Binding Buffer, 1× Wash Buffer and 1× Antibody Binding Buffer are prepared. […] Jurkat nuclear extract was diluted with Complete Lysis Buffer to a concentration of 125 μg protein/mL.
(§2) To each of the wells in a plate included in the kit, on which a NF-κB-binding nucleic acid is preliminarily immobilized, 30 μL each of the NF-κB Decoy Oligonucleotide Dilution prepared in (1) described above is added. To the wells of the blank and control, 30 μL each of Complete Binding Buffer was added. Then 20 μL each of the above-described Jurkat nuclear extract was added to each well. To each of the wells of the blank and control, 20 μL each of Complete Lysis Buffer was added. After shaking the plate at room temperature for 1 hour, each well was washed with 200 μL of 1× Wash Buffer 3 times, and 100 μL each of rabbit anti-NF-κB p65 antibody 1000-fold diluted with 1× Antibody Binding Buffer was added, followed by shaking the plate at room temperature for 1 hour. Thereafter, each well was washed with 200 μL of 1× Wash Buffer 3 times, and 100 μL each of HRP-labeled anti-rabbit IgG antibody 1000-fold diluted with 1× Antibody Binding Buffer was added to each well, followed by shaking the plate at room temperature for 1 hour. Thereafter, each well was washed with 200 μL each of 1× Wash Buffer 4 times, and 100 μL each of Developing Solution was added, followed by allowing coloring reaction in a dark room for 5 minutes. After the reaction, the coloring reaction was stopped by adding 100 μL each of Stop Solution. […] The percentage of the absorbance of each NF-κB decoy oligonucleotide at each of the concentrations was calculated taking the ratio of absorbances of the well of control as 100, and IC₅₀ of each decoy oligonucleotide was calculated from the approximate curve obtained by plotting the mean values of the above-mentioned percent absorbance.

[2] = target: T1, NF-kB p65 (RelA); assay: competition; 0.60 relative to SEQ-X-PS (Table 7)
Protocol: as §1
as §2, with “hour.” for “hour. Thereafter, each well was washed with 200 μL of 1× Wash Buffer 3 times, and 100 μL each of HRP-labeled anti-rabbit IgG antibody 1000-fold diluted with 1× Antibody Binding Buffer was added to each well, followed by shaking the plate at room temperature for 1 hour. Thereafter, each well was washed with 200 μL each of 1× Wash Buffer 4 times, and 100 μL each of Developing Solution was added, followed by allowing coloring reaction in a dark room for 5 minutes. After the reaction, the coloring reaction was stopped by adding 100 μL each of Stop Solution.”

[3] = target: T1, NF-kB p65 (RelA); assay: competition; 0.16 relative to SEQ-X-PS (Table 7)
Protocol: as §1
as §2, with “hour.” for “hour. Thereafter, each well was washed with 200 μL of 1× Wash Buffer 3 times, and 100 μL each of HRP-labeled anti-rabbit IgG antibody 1000-fold diluted with 1× Antibody Binding Buffer was added to each well, followed by shaking the plate at room temperature for 1 hour. Thereafter, each well was washed with 200 μL each of 1× Wash Buffer 4 times, and 100 μL each of Developing Solution was added, followed by allowing coloring reaction in a dark room for 5 minutes. After the reaction, the coloring reaction was stopped by adding 100 μL each of Stop Solution.”

Row | Binder | binding signal [1] | further results
1 | B1 | 1.09 IC50 ratio to SEQ-I | 
2 | B2 | 0.76 IC50 ratio to SEQ-I | 
3 | B3 |  | binding signal [2]: > 1.67 IC50 ratio to SEQ-x
4 | B4 | 0.28 IC50 ratio to SEQ-I | 
5 | B5 | 0.42 IC50 ratio to SEQ-I | 
6 | B6 | 0.41 IC50 ratio to SEQ-I | 
7 | B7 |  | binding signal [3]: 1.43 IC50 ratio to SEQ-x
8 | B8 | 0.66 IC50 ratio to SEQ-x | 
9 | B9 | 0.26 IC50 ratio to SEQ-I | 
10 | B10 | 0.84 IC50 ratio to SEQ-I | 
11 | B11 | 0.011 IC50 ratio to SEQ-x | 
12 | B12 | 0.2 IC50 ratio to SEQ-x | 
13 | B13 | 0.61 IC50 ratio to SEQ-I | 
14 | B14 | > 2.87 IC50 ratio to SEQ-I | 
15 | B15 | 0.015 IC50 ratio to SEQ-x | 
16 | B16 | 0.015 IC50 ratio to SEQ-x | 
17 | B17 | 0.014 IC50 ratio to SEQ-x | 
18 | B18 | 0.52 IC50 ratio to SEQ-I | 
19 | B19 | 0.43 IC50 ratio to SEQ-I | 

Row | Binder | binding signal [1] | further results
20 | B20 | 1.24 IC50 ratio to SEQ-I | 
21 | B21 | 2.07 IC50 ratio to SEQ-I | 
22 | B22 | > 3.45 IC50 ratio to SEQ-I | 
23 | B23 | 0.021 IC50 ratio to SEQ-x | 
24 | B24 | > 1.48 IC50 ratio to SEQ-x | 
25 | B25 | 0.3 IC50 ratio to SEQ-I | 
26 | B26 | 0.72 IC50 ratio to SEQ-x | 
27 | B27 | 0.012 IC50 ratio to SEQ-x | 
28 | B28 | 0.02 IC50 ratio to SEQ-x | 
29 | B29 | > 2.2 IC50 ratio to SEQ-I | 
30 | B30 | > 2.2 IC50 ratio to SEQ-I | 
31 | B31 | > 1.67 IC50 ratio to SEQ-x | 
32 | B32 | 1.39 IC50 ratio to SEQ-I | 
33 | B33 | > 1.48 IC50 ratio to SEQ-x | 
34 | B34 | > 2.93 IC50 ratio to SEQ-x | 
35 | B35 | 0.69 IC50 ratio to SEQ-I | 
36 | B36 | 0.19 IC50 ratio to SEQ-x | 
37 | B37 | 2.17 IC50 ratio to SEQ-I | 
